Series [1] concerns the target SPD_1495 (33-442 AA), recombinant, GST tag removed (S. pneumoniae D39). The series can be described thus: SPR; SPD_1495 (30 ug/ml) fixed on a NanoGold-COOH sensor chip by capture coupling; ComE^D58E injected at 100, 200, 400, 800 and 1,600 nmol/liter in 0.01 M PBS; Open-SPR (Nicoya), 25°C; association and dissociation 300 s each; one-to-one diffusion-corrected model, TraceDrawer.

Series [2] has as its target T1, SPD_1495 (Streptococcus pneumoniae D39) (UniProt A0A0H2ZL68).
T1 sequence: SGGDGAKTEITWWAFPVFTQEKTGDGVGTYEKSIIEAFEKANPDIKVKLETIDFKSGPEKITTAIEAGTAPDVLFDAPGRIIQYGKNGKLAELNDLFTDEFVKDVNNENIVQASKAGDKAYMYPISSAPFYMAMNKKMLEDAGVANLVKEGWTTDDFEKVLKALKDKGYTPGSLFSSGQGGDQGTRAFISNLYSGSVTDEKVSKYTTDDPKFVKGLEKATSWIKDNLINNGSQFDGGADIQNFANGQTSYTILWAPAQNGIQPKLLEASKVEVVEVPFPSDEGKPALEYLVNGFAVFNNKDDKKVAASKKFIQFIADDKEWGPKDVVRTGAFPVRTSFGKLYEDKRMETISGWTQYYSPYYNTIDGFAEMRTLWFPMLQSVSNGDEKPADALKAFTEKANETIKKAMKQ
The series can be described thus: EMSA.

Regarding “ComE^D58E, phosphomimetic mutant of the response regulator ComE (natural protein)”, the Kd in series [1] was 1.55 µM.

As for “TACACATCTGCTTCTAAAATATTGTTAGAAAACGATTTGACTGTCCTGATCAATTTGTCATGTTCTTATTTCATTTTACTATATTTTTGGTTCGCGGGAAGTCTACTAAGATACTTAAAGATGCAGATAGTGAAAAAAGGTGTAGACATTACCGTAAAAAAGTGATATAATCGTAAGATGTTCAATGTATAGGTGTTAATCATGAGTAGACGTTTTAA (double strand) [Bio-cps (cps upstream promoter)]”, the binding entry in series [2] is “no binding”.

The values are drawn from paper PMC7043342.
